Source: US20250215105A1 (BRIGHTPATH BIOTHERAPEUTICS, published 2025)

Target: T1, human CD39 on the cell surface (human, UniProt P49961 1-510)
T1 construct: whole, on cells; This one entry covers every cell-surface human CD39 assay, on transfected and on endogenous cells; also called 239T-hCD39; Jurkat-hCD39
T1 sequence (looked up): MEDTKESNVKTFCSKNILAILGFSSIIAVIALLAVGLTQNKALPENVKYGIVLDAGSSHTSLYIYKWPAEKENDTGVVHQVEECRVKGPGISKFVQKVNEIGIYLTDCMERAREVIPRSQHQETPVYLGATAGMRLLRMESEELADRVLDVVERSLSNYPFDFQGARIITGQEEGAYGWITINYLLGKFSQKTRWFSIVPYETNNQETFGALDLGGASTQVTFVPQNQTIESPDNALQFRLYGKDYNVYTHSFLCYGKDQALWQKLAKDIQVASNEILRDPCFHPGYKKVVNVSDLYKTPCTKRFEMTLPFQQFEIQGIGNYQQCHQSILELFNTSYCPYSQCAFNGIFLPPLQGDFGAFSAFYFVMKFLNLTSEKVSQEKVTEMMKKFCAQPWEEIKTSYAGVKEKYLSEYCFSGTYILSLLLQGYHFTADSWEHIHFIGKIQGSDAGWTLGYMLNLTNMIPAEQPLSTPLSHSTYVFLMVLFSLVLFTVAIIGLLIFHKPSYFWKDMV
Assay: flow cytometry on human CD39-overexpressing HEK293T or Jurkat cells

- binding result: binds
B1: P4_h1lala (antibody, V domains shown)
VH: QVQLKESGPSLVQPSQSLSITCTVSGFSLTNYGVHWVRQSPGKGLEWLGVILRRGSTDYNAAFMSRLSITKDNSKSQVFFKMNSLQADDTAIYYCAKTAVVAGDYFDYWGQGTTLTVSS
VL: DIVMTQSHKFMSTSVGDRVSVTCKASQNVGTNVAWYQQKPGQSPKALIYSASYRYSGVPDRFTGSGSGTDFTLTISNVQSEDLAEYFCQQYNSYPLTFGTGTKLEIKR
notes: Chimeric antibody
